Ends that are not written are not given here.
What follows are binders tested against PKA-RIIα-GFP (UniProt P13861) (assay: not given).
PKA-RIIα-GFP, sequence (P13861 2-404): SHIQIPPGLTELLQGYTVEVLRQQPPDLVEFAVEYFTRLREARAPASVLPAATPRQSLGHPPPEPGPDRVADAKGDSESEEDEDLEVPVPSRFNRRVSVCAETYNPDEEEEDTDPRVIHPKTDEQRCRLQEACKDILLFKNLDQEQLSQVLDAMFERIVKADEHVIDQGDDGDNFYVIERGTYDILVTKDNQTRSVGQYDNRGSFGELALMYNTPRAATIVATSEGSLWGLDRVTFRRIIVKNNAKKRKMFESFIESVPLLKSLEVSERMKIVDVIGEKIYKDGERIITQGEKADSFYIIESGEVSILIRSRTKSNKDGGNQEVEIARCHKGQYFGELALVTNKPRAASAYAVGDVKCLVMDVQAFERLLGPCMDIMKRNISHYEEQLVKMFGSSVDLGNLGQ
WKIAKMIVSDIMQQ [truncation SEQ 78]: no binding.
KIAKMIVSDIMQQ [truncation SEQ 79]: no binding.
IAKMIVSDIMQQ [truncation SEQ 80]: no binding.
AKMIVSDIMQQ [truncation SEQ 81]: no binding.
KMIVSDIMQQ [truncation SEQ 82]: no binding.

Each binder was assayed against PKA-RIα-GFP (UniProt P10644) (assay: not given).
PKA-RIα-GFP, sequence (P10644 whole entry, the tested form may be a part): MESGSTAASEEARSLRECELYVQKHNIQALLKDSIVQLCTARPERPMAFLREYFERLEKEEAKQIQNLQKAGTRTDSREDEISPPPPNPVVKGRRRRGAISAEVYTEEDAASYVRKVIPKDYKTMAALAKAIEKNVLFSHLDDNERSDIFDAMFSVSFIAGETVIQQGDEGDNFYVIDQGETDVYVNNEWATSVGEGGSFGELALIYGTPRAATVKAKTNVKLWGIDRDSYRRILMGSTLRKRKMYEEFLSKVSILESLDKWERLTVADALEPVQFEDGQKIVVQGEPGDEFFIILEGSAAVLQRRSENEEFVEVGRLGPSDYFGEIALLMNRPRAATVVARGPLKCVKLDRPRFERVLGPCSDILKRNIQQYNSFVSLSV
EELAWKIAK [truncation SEQ 12]: no binding.
TDEAQEELAWKIAKMIVSD [truncation SEQ 8]: no binding.
ELAWKIA [truncation SEQ 13]: no binding.
QEELAWKIAKM [truncation SEQ 11]: no binding.
DEAQEELAWKIAKMIVS [truncation SEQ 9]: no binding.
EAQEELAWKIAKMIV [truncation SEQ 4]: no binding.
AQEELAWKIAKMI [truncation SEQ 10]: no binding.

The binders below were run against T1, PKA RIα (full-length) (bovine, UniProt P00514) (assay: FP).
T1 sequence (P00514 2-380): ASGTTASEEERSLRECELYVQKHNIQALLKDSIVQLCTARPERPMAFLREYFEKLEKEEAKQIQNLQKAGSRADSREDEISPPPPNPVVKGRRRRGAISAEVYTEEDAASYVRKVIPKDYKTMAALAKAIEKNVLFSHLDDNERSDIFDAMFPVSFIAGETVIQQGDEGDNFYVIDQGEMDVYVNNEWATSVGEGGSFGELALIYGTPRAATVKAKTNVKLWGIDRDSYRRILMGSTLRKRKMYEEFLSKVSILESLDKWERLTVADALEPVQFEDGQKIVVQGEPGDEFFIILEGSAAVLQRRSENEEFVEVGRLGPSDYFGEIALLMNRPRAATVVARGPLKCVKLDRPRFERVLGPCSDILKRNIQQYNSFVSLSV
Binder VQGNTDEAQEELAWKIAKMIWSDVMQQC [V21W] has a Kd of 120 nM.
VQGNTDEAQEELAWKIAKMIVSDVMQQC(tetramethylrhodamine) [AKB(dual) WT] gave a Kd of 48 nM.
With FEELAWKIAKMIISDVFQQC [PV-49] the Kd was 1.1 nM.
With QEEFAWKIAKMIVSDVFQQC [PV-47] the Kd was 39 nM.
FEELAWKIAKMIWSDVFQQC [AKB(RI) PV-38] was tested, and the Kd was 5.2 nM.
Work on QEEFAWKIAKMIISDVFQQC [PV-48] yielded a Kd of 12 nM.
For FEELAWKIAKMIWSDVMQQC [PV-37], the Kd was 19 nM.
Ac-DLAWKIAKMIVSDVMQQC [Ac-DLAWKIAKMIVSDVMQQC] gave a Kd of 773 nM.

Molecular target: PKA-RIα-GFP (UniProt P10644)
Assay: not given
Remark: another data set of the same source
WKIAKMIVSDIMQQ [truncation SEQ 78]: no binding.
AWKIAKMIVSDIMQQ [truncation SEQ 77]: no binding.
KIAKMIVSDIMQQ [truncation SEQ 79]: no binding.
IAKMIVSDIMQQ [truncation SEQ 80]: no binding.
AKMIVSDIMQQ [truncation SEQ 81]: no binding.
LAWKIAKMIVSDIMQQ [truncation SEQ 76]: no binding.
KMIVSDIMQQ [truncation SEQ 82]: no binding.

Molecular target: T1, PKA RIα (full-length)
Assay: FP
Remark: another data set of the same source
VQGNTDEAQEELAWKIEKMIWSDVMQQC (also: fluorescently labeled) [AKB(null)] gave a Kd of 998 nM.
VQGNTDEAQEELAWKIAKMIVSDVMQQC(tetramethylrhodamine) [AKB(dual) WT] showed a Kd of 48 nM.
Binder VQGNTDEAQEELLWKIAKMIVSDVMQQC (also: fluorescently labeled) [AKB(RII)] has a Kd of 2490 nM.
FEELAWKIAKMIWSDVFQQC [AKB(RI) PV-38] gave a Kd of 5.2 nM.

Molecular target: PKA-RIIα-GFP (UniProt P13861)
Assay: not given
Remark: another data set of the same source
VQGNTDEAQEELAWKIA [truncation SEQ 92]: no binding.
VQGNTDEAQEELAWK [truncation SEQ 94]: no binding.
VQGNTDEAQEEL [truncation SEQ 97]: no binding.
VQGNTDEAQEELAWKI [truncation SEQ 93]: no binding.
VQGNTDEAQEELAWKIAKMI [truncation SEQ 89]: no binding.
VQGNTDEAQEELAWKIAKM [truncation SEQ 90]: no binding.
VQGNTDEAQEELA [truncation SEQ 96]: no binding.
VQGNTDEAQEE [truncation SEQ 98]: no binding.
VQGNTDEAQEELAWKIAK [truncation SEQ 91]: no binding.
VQGNTDEAQEELAW [truncation SEQ 95]: no binding.
VQGNTDEAQE [truncation SEQ 99]: no binding.

Molecular target: PKA-RIIα-GFP (UniProt P13861)
Assay: not given
Remark: another data set of the same source
EELAWKIAK [truncation SEQ 12]: no binding.
ELAWKIA [truncation SEQ 13]: no binding.
QEELAWKIAKM [truncation SEQ 11]: no binding.
AQEELAWKIAKMI [truncation SEQ 10]: no binding.

What follows are binders tested against PKA-RIα-GFP (UniProt P10644) (assay: SPR).
For Ac-VQGNTDEAQEELAWKIAKMIVSDVMQQ-NH2 [Ac-27mer Val], the Kd was 500 nM.
Binder Ac-VQGNTDEAQEELAWKIAKMIVSDIMQQ [Ac-27mer Ile] has a Kd of 860 nM.

Each binder was assayed against T2, PKA RIIα (full-length) (mouse, UniProt P12367) (assay: FP).
T2 sequence (P12367 2-401): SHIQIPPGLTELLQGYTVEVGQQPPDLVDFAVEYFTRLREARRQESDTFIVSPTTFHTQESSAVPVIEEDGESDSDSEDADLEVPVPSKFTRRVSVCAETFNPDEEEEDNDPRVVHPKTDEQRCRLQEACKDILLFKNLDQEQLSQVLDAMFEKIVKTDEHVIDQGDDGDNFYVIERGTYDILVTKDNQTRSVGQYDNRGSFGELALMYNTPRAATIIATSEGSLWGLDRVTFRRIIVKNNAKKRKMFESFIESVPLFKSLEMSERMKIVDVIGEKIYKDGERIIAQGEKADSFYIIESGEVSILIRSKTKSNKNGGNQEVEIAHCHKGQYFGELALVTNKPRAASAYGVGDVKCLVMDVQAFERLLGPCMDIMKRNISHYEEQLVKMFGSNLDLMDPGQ
For VQGNTDEAQEELAWKIEKMIWSDVMQQC (also: fluorescently labeled) [AKB(null)], the Kd was greater than 10000 nM.
In the case of VQGNTDEAQEELAWKIAKMIVSDVMQQC(tetramethylrhodamine) [AKB(dual) WT], the Kd is reported as 2.2 nM.
In the case of VQGNTDEAQEELLWKIAKMIVSDVMQQC (also: fluorescently labeled) [AKB(RII)], the Kd is reported as 2.7 nM.
Work on FEELAWKIAKMIWSDVFQQC [AKB(RI) PV-38] yielded a Kd of 456 nM.

Molecular target: T2, PKA RIIα (full-length)
Assay: FP
Remark: another data set of the same source
VQGNTDEAQEELAWKIAKMIWSDVMQQC [V21W] showed a Kd of 83 nM.
VQGNTDEAQEELAWKIAKMIVSDVMQQC(tetramethylrhodamine) [AKB(dual) WT] gave a Kd of 2.2 nM.
Binder FEELAWKIAKMIISDVFQQC [PV-49] has a Kd of 2.5 nM.
Binder QEEFAWKIAKMIVSDVFQQC [PV-47] has a Kd of 89 nM.
FEELAWKIAKMIWSDVFQQC [AKB(RI) PV-38] was tested, and the Kd was 456 nM.
QEEFAWKIAKMIISDVFQQC [PV-48] showed a Kd of 124 nM.
With FEELAWKIAKMIWSDVMQQC [PV-37] the Kd was 150 nM.
Ac-DLAWKIAKMIVSDVMQQC [Ac-DLAWKIAKMIVSDVMQQC] gave a Kd of 107 nM.

Molecular target: PKA-RIα-GFP (UniProt P10644)
Assay: not given
Remark: another data set of the same source
VQGNTDEAQEELAWKIA [truncation SEQ 92]: no binding.
VQGNTDEAQEELAWK [truncation SEQ 94]: no binding.
VQGNTDEAQEEL [truncation SEQ 97]: no binding.
VQGNTDEAQEELAWKIAKMIVS [truncation SEQ 87]: no binding.
VQGNTDEAQEELAWKI [truncation SEQ 93]: no binding.
VQGNTDEAQEELAWKIAKMI [truncation SEQ 89]: no binding.
VQGNTDEAQEELAWKIAKM [truncation SEQ 90]: no binding.
VQGNTDEAQEELAWKIAKMIV [truncation SEQ 88]: no binding.
VQGNTDEAQEELAWKIAKMIVSD [truncation SEQ 86]: no binding.
VQGNTDEAQEELA [truncation SEQ 96]: no binding.
VQGNTDEAQEE [truncation SEQ 98]: no binding.
VQGNTDEAQEELAWKIAK [truncation SEQ 91]: no binding.
VQGNTDEAQEELAW [truncation SEQ 95]: no binding.
VQGNTDEAQE [truncation SEQ 99]: no binding.
